Here are results for one protein from PMC5468478 (FEBS letters, 2017).

This data set deals with the molecule itself. As to the kind of experiment: negative-stain electron microscopy.

B1: Mod5 (enzyme, S. cerevisiae, UniProt P07884 1-428, looked up)
chain: MLKGPLKGCLNMSKKVIVIAGTTGVGKSQLSIQLAQKFNGEVINSDSMQVYKDIPIITNKHPLQEREGIPHHVMNHVDWSEEYYSHRFETECMNAIEDIHRRGKIPIVVGGTHYYLQTLFNKRVDTKSSERKLTRKQLDILESTDPDVIYNTLVKCDPDIATKYHPNDYRRVQRMLEIYYKTGKKPSETFNEQKITLKFDTLFLWLYSKPEPLFQRLDDRVDDMLERGALQEIKQLYEYYSQNKFTPEQCENGVWQVIGFKEFLPWLTGKTDDNTVKLEDCIERMKTRTRQYAKRQVKWIKKMLIPDIKGDIYLLDATDLSQWDTNASQRAIAISNDFISNRPIKQERAPKALEELLSKGETTMKKLDDWTHYTCNVCRNADGKNVVAIGEKYWKIHLGSRRHKSNLKRNTRQADFEKWKINKKETVE
Take B1: the binding result is given as “binds”.
